How the values were obtained:
[1] = biological target: T1, hAng1 (human, UniProt Q15389 20-498, limits assumed); assay: SPR, BIAcore T100
T1 construct: Tested by the same SPR set-up as hAng2; the construct is not described; also called human Ang1
T1 sequence (looked up): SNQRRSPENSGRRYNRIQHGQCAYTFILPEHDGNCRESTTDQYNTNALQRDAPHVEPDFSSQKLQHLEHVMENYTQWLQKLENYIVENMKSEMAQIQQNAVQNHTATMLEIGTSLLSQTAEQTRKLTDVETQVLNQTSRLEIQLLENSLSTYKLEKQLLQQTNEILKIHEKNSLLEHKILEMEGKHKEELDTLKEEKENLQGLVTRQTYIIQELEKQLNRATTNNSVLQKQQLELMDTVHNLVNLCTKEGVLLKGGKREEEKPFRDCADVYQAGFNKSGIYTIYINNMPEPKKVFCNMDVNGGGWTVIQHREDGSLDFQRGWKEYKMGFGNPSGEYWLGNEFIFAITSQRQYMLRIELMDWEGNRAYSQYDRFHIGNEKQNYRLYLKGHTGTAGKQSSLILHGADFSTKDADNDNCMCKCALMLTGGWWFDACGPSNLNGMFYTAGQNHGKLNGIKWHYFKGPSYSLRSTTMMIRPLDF

[2] = biological target: T2, recombinant hAng-2 (C-His, R&D Systems) (human, UniProt O15123 19-496); assay: SPR, BIAcore T100; hAng-2 C-His captured on anti-His chip, antibody flowed
T2 construct: Bought protein; Captured on an anti-His antibody chip for SPR; also called human Ang2; not shown: C-terminal His tag
T2 sequence: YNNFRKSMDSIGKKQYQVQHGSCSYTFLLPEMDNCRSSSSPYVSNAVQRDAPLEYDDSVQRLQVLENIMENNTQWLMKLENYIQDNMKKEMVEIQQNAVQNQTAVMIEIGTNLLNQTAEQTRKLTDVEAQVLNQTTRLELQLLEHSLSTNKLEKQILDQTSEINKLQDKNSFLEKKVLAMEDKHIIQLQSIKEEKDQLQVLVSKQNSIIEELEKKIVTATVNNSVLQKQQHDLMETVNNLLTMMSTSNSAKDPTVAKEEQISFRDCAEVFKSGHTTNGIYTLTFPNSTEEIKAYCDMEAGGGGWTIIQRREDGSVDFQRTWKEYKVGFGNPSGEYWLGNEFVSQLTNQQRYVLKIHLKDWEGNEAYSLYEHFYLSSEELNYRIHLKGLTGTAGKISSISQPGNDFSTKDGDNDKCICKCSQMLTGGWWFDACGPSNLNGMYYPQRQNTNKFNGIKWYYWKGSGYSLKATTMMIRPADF
Protocol: To more exactly measure the binding affinity of the anti-Ang2 antibodies to antigen Ang2, the binding affinity of the above antibodies to the antigen was measured by an surface plasmon resonance (SPR) method using BIAcore T100 (GE Healthcare). The SPR method uses refractive index change of light which passes a sensor chip according to the state of materials coated onto the sensor chip, and if an antigen or an antibody is flowed onto a chip coated with the antigen or antibody, it causes changes in refractive index due to their binding and Kd values are thus calculated from the measured values.
First, anti-His antibody was immobilized on a CM5 sensor chip (GE healthcare) up to 8,000 RU levels using a pH 5.0 acetate solution and an amine coupling kit (GE Healthcare). 6 μg/ml of a recombinant hAng-2 (C-His, R&D Systems) protein was flowed onto the chip to be captured at 100 to 200 RU levels.

[3] = biological target: T3, mouse Ang2 (Accession # NP-031452) (R&D Systems) (mouse, UniProt O35608 19-496); assay: ELISA on coated mouse Ang2; 50% binding concentration, which the filing calls Kd
T3 construct: Bought protein coated on the ELISA plate; also called mAng2
T3 sequence (looked up): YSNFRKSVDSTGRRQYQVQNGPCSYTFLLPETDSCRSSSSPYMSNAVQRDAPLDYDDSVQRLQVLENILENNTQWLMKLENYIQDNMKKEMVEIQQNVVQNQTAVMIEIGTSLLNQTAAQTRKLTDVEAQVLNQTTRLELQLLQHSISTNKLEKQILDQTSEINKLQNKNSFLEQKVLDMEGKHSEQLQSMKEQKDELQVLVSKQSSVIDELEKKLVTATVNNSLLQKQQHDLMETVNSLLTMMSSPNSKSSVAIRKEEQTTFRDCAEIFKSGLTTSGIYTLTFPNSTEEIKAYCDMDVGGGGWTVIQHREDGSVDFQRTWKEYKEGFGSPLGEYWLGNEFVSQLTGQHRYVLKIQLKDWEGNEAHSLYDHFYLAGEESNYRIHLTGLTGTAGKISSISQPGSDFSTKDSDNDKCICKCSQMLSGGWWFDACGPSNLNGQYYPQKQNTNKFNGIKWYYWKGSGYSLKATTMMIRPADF
Protocol: An ELISA was conducted to measure the binding affinity of the antibodies prepared in Example 2 to mouse Ang2(mAng2). MaxiSorp™ flat-bottom plate (Nunc) of 96-well was coated with 5-20 μg/ml of mouse Ang2 (Mouse Ang2; Accession # NP_{—}031452) (R&D Systems). Thereafter, the plate was washed five times with 0.05% (v/v) Tween-20-containing PBS (PBST) and then blocked with 1% (v/v) BSA (bovine serum albumin; Sigma)-containing PBS at a room temperature for 2 hour. Each of the anti-Ang2 antibodies was added to each well of the plate at various concentrations, and the plate was allowed to react at a room temperature for 2 hours.
Thereafter, the plate was washed five times with PBST. Then, a HRP-conjugated anti-mouse IgG antibody (Santacruz) diluted in 1% (v/v) BSA-containing PBS at a ratio of 1:1,000 (v/v) was added in an amount of 50 μl to each well to react at a room temperature for 1 hour and then, the plate was washed five times with PBST. Lastly, 100 μl of TMB substrate (Cell Signaling) was added to each well of the plate to induce color development for 3 min. and then, the reaction was ceased by the addition of 100 μl of Stop solution (Cell Signaling) and OD450 values were measured on a plate reader (Molecular Devices).
From the obtained results, 50% binding concentration (Kd) of the anti-Ang2 antibody to Ang2 protein is obtained, thereby measuring the binding intensity of each of the anti-Ang2 antibodies to Ang2.

[4] = biological target: T4, FLAG-tagged hAng-2 (human, UniProt O15123 19-496); assay: Ang2:Tie2 competition ELISA; hTie2-Fc coated, 400 ng/ml FLAG-tagged hAng-2, anti-FLAG-HRP detection
T4 sequence: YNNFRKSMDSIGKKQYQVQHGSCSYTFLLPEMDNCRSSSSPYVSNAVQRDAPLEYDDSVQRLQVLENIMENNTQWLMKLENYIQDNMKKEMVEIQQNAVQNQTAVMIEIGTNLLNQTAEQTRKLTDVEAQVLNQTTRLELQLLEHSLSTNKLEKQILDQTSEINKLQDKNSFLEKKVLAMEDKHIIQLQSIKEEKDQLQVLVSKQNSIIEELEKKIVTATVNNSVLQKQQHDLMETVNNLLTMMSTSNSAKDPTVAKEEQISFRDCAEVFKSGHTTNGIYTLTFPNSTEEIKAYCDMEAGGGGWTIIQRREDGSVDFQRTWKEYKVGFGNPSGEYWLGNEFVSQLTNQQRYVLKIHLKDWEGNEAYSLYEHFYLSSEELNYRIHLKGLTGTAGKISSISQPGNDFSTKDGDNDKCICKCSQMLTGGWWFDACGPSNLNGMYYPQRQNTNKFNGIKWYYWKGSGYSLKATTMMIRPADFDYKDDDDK
Protocol: More specifically, MaxiSorp™ flat-bottom plate (Nunc) of 96-well was coated with hTie2-Fc (R&D Systems) which is a protein bound with 4 μg/ml of Fc of human IgG1. After coating, the plate was washed five times with 0.05% (v/v) Tween-20-containing PBS (phosphate buffer saline) and then blocked with 1% (v/v) BSA (bovine serum albumin; Sigma)-containing PBS at a room temperature for 2 hour.
For Ang2:Tie2 competition ELISA, each anti-Ang2 antibody obtained in Example 2 was placed at various concentrations of 400 nM-0.001 nM into each well coated with the hTie-2/Fc fusion protein along with 1% (v/v) BSA and 400 ng/ml of a FLAG-tagged hAng-2 and then, the plate was allowed to react at a room temperature for 2 hours and washed five times with PBST. After that, a HRP-conjugated anti-FLAG antibody (Sigma) diluted in 1% (v/v) BSA-containing PBS at a ratio of 1:5,000 (v/v) was added in an amount of […] to each well to react at a room temperature for 1 hour and then, the plate was washed five times with PBST. Lastly, 100 μl of TMB substrate (Cell Signaling) was added to each well of the plate to induce color development for 3 min. and then, the reaction was ceased by the addition of 100 μl of Stop solution (Cell Signaling) and OD450 values were measured on a plate reader (Molecular Devices).

- Kd [2]: 2.3 nM
- Kd [3]: 2.1 nM
- IC50 [4]: 2.89 nM
B1: SAIT-ANG2-AB-m1B6 (antibody, V domains shown)
VH: QIQLVQSGPELKKPGETVKISCKASGYTFTNYGMNWVKQAPGKGLKWMGWINTYTGEPTYADDFKGRFAFSLETSASTAYLQINNLKNEDTATYFCARDHDGYLMDYWGQGTSVTVSS
VL: DIQMTQTTSSLSASLGDRVTISCSTSQGISNYLNWYQQKPDGTVKLLIFYTSSLHSGVPSRFSGSGSGTDYSLTISNLEPEDIATYYCQQYSKLPYTFGGGTKLEIK
notes: also called hybridoma KCLRF-BP-00307
- binding result [1]: no binding (tested: 100 nM (highest antibody concentration))
